Measurements reported in patent publication US20200123231A1 (RESEARCH FOUNDATION OF THE CITY UNIVERSITY OF NEW YORK, published 2020).

Molecular target: the molecule itself
Test: TEM, negative stain, TES buffer pH 7, 24 h at 37 C; non-specific self-association (no fibrils)
Experimental: FIG. 5A and FIG. 5B are TEM images of the non-specific aggregates of Col108r. The fibril formation was initiated by transferring Col108r in 5 mM Acetic Acid (pH 4.5) to TES buffer (pH 7) and incubated for 24 hr at 37° C. The grids were stained with 1% sodium phosphotungstate; magnification factor 10,000; the scale bar is 200 nm. The two images were taken for two different preparations under identical treatments.

B1: peptide Col108r (Col-domain, randomized Col-domain and reversed Col-domain units) (peptide)
chain: GPCCGPPGPPGPPGPPGERGPPGPQGARGLPGAPGQMGPRGLPGERGRPGAPGPAGARGEPGAPGSKGDTGAKGEPGPVGVQGPPGPAGEEGKRGARGEPGPTGPAGPKGSPGEAGRPGEAGLPGPPGPPGPPGPPGMQGLPGPRGAPGRAGPEGRAGRPGPAGLPGEQGRAGRPGPPGAEGAEGKPGAPGSPGPRGLPGPAGDTGPEGQVGARGPKGEPGTPGRAGEPGEPGVPGKAGPKGESGPPGPPGPPGPPGREGPPGQPGRAGPLGPAGMQGRPGPLGREGPRGPAGAPGRAGPEGPAGKSGTDGKAGPEGVPGQVGPPGAPGEEGRKGRAGPEGTPGAPGKPGPSGAEGPRGAEGPLGPPGPPGPPGPPGPCCGYIPEAPRDGQAYVRKDGEWVLLSTFL
notes: Forms a collagen triple helix (trimer) with Cys-knots and foldon
B1: binds.
